What all share (format): biochemical
Data set [1] can be described thus: Preparation of L-phosphinothricin by coupling glutamate dehydrogenase with glucose dehydrogenase. The following applies: 500 mM PPO, NADP+, GluDH cells 0.5 g/L, 35° C., pH 7.5, 6 h. The procedure:
(§1) The reaction process is monitored by measuring the concentration of substrate in the reaction solution applying high-performance liquid chromatography (HPLC). HPLC analysis method is stated as follows: column model: Pntulips® QS-C18, 5 μm, 4.6 mm×250 mm. Mobile phase: 50 mM (NH4)2HPO4, added 1% of 10% tetrabutyl ammonium hydroxide, adjusted to pH 3.6 with 50% phosphoric acid(mass fraction), added 8% acetonitrile. Detective wave length is 205 nm; flow rate is 1.0 mL/min. Column temperature is 40° C.
(§2) The enantiomeric excess and concentration of product are determined through pre-column derivatization high-performance liquid chromatography; the specific analysis method is stated as follows:
(§3) (1) HPLC condition: column model: Pntulips® QS-C18, 5 μm, 4.6 mm×250 mm. Mobile phase: 50 mM Sodium acetate: Acetonitrile=8: 0.5 (v/v). Detective wave length: 338 nm. Flow rate: 0.85 mL/min. Column temperature: 30° C.
(§4) (2) Derivatization reagent: Weigh 0.03 g phthalaldehyde and 0.1 g N-acetyl-L-cysteine, and use 400 uL ethanol for solubilization; after that, add 4 mL 0.2 mol/L borate buffer (pH 9.8) and shake for dissolution prior to storage in the fridge under the temperature of 4° C. (no more than 4 days).
(§5) (3) Derivatization reaction and analysis: Add 150 μL derivatization reagent into 100 μL sample, mix and incubate at 25° C. for 5 min, and then inject 20 μL for analysis.
Culture recombinant E. coli expressing glutamate dehydrogenase (PpGluDH) and glucose dehydrogenase (BsGDH-2M, SEQ ID NO. 21) with method in Step 3 of Embodiment 1; proceed with centrifugal collection of cells and ultrasonic cell disruption to prepare crude enzyme solution.
(§6) The final volume of the reaction is 30 mL; each sample contains 500 mM substrate PPO, 600 mM glucose, 250 mM (NH4)2SO4 and 0.5 mM NADP^+. Concentration of glutamate dehydrogenase cells (dry weight) is 1.0 g/L; concentration of glucose dehydrogenase cells (dry weight) is 1.25 g/L. Use water bath to control the reaction temperature at 35° C.; titrate ammonia to control pH at 7.5 during the reaction process. Use non-chiral HPLC to determine residual concentration of PPO after reaction for 6 h; meanwhile, use pre-column derivatization HPLC to determine the concentration and ee value of formed L-phosphinothricin.
as §6, with “0.5” for “1.0”
as §6, with “NAD^+.” for “NADP^+.”, “1.25” for “1.0”
The final volume of the reaction is 30 mL; each sample contains 500 mM substrate PPO, 600 mM glucose, 250 mM (NH4)2SO4 and 0.5 mM NAD^+. Concentration of glutamate dehydrogenase cells (dry weight) is 1.25 g/L; concentration of glucose dehydrogenase cells (dry weight) is 1.25 g/L. Use water bath to control the reaction temperature at 35° C.; titrate ammonia to control pH at 7.5 during the reaction process. […]

The nature of data set [2]: Preparation of L-phosphinothricin by coupling glutamate dehydrogenase with alcohol dehydrogenase. The following applies: 500 mM PPO, 750 mM isopropanol, TBADH, NADP+, GluDH cells 0.5 g/L, 35° C., pH 7.5, 12 h. On the procedure:
as §1, §2, §3, §4, §5
Culture recombinant E. coli expressing glutamate dehydrogenase (LsGluDHp-A175G, SEQ ID NO. 7) and alcohol dehydrogenase (TBADH, WP_041589967.1) with method in Step 3 of Embodiment 1; proceed with centrifugal collection of cells and ultrasonic cell disruption to prepare crude enzyme solution.
The final volume of the reaction is 30 mL; each sample contains 500 mM substrate PPO, 750 mM isopropanol, 250 mM (NH4)2SO4 and 0.5 mM NADP^+. Concentration of glutamate dehydrogenase cells (dry weight) is 0.5 g/L; concentration of alcohol dehydrogenase cells (dry weight) is 2.5 g/L. Use water bath to control the reaction temperature at 35° C.; titrate ammonia to control pH at 7.5 during the reaction process. […]

The nature of data set [3]: Standard enzyme activity measurement toward PPO, crude enzyme (per volume fermentation broth).

B1: LsGluDHp-A175G: LsGluDHp mutant A175G, SEQ ID NO. 7 (protein)
chain: MTITTVSNEQLAKEYVDGVFEQLKQQNCHQAEFLQAAEEIFISLVPVFVQHPEYIKANILSRIVEPDRIISFRVAWQDDHNQVQVNRGYRVQYSNVMGPYKGGLRFHPSVNESIIKFLGFEQIFKNALTGQPIGGGKGGSNFDPKGKSDSEIMRFCQAFMTELYRHIGPDVDVPGGDIGVGAREVGYLWGQYKRLTKASESGVLTGKTPGYGGSLARKEATGYGTVYFVNEMLKDVNDSFEGKTVVVSGSGNVSTYAIEKAQQYGAKVVACSDSSGYIYDPEGLDLDVIKEIKEVKGDRISTYVSYRPNATFTNGCTGIWTIPCDIALPCATQNEINGESARTLISNGVKAIGEGANMPSDLEAINEFLNAGVLFGPAKAANAGGVAVSALEMAQDSSRVFWSFEEVDAKLHQIMKDIYSDSKAAAEKYGFPGNLVMGANIAGFIKVADGMLTEGIY
modifications: Lysinibacillus sphaericus glutamate dehydrogenase mutant
B1: in data set [1], the “concentration of formed L-phosphinothricin” value worked out at 82.4 g/L, the “residual PPO” value was 0 mM and the substrate conversion was determined as 100%. Also, in data set [2], the “concentration of formed L-phosphinothricin” value is reported as 81.3 g/L, the “residual PPO” value was determined as 1.3 mM and the substrate conversion is on record as 99.7%. The Fold change in data set [3] is 1641. The “Enzyme activity of mutants (U/mL)” value in data set [3] (toward PPO, crude enzyme, standard system, N.D. = no detectable activity) is on record as 34.47 U/mL.

The values are drawn from patent publication US10865391B2, “Glutamate dehydrogenase mutants and their application in preparation of L-phosphinothricin” (ZHEJIANG UNIVERSITY, priority 2018, dated 2020).
